# From patent US9809808B2, “Antimicrobial agents” (KATHOLIEKE UNIVERSITEIT LEUVEN K.U. LEUVEN R&D, priority 2008, dated 2017)
# Read-outs that look alike come from different tables or passages of the source.
# Assays:
# [1] = system: P. aeruginosa Br667; test: Antibacterial activity of PSP3gp10 and PKPSP3gp10 with and without EDTA (30 minutes, colony count); assay type: cell-based, Pseudomonas aeruginosa
# [2] = system: Salmonella typhimurium LT2; test: as above; assay type: cell-based
# Description: (§1) To determine the anti-Gram-negative spectrum of the PKPSP3gp10 endolysin according to SEQ ID NO: 53, a combination of 1.315 μM PKPSP3gp10 endolysin and 0.5 mM EDTA was tested on the clinical P. aeruginosa strains PAO1p and Br667, Escherichia coli WK6, and Salmonella typhimurium (see Table 5). Exponential growing bacterial cells (OD600 nm of 0.6) were 100-fold diluted to a final density of about 10^6/ml of each strain were incubated for 30 minutes at room temperature without shaking with unmodified endolysin […] (SEQ ID NO: 8) and modified endolysin PKPSP3gp10 (SEQ ID NO: 53) each in combination without and with 0.5 mM EDTA. […] As a control each strain was also incubated for 30 minutes with 0.5 mM EDTA (in same buffer as outlined above) but no endolysin.
# (§2) After incubation cell suspensions were diluted three times (respectively 10^5-10^4-10^3 cells/ml) and 100 μl of each dilution was plated out on LB-medium.
# [3] = system: Escherichia coli WK6; test: as above; assay type: cell-based
# Description: as §1, §2
# [4] = system: Pseudomonas aeruginosa PAO1p cells; test: Effect of different EDTA and endolysin concentrations on antibacterial activity of OBPgpLYS and PKOBPgpLYS; assay type: cell-based; details: no endolysin
# Description: To determine the influence of EDTA on the antibacterial activity of unmodified and modified endolysins the antibacterial activity of the unmodified OBPgpLYS endolysin (SEQ ID NO: 7) and the PKOBPgpLYS endolysin (SEQ ID NO: 61) was tested on Pseudomonas aeruginosa PAO1p cells ([…] et al. J Clin Microbiol., 41(3):1192-1202 (2003)) using different concentrations of EDTA and endolysins. Exponential growing bacterial cells (OD600 nm of 0.6) were 100-fold diluted to a final density of about 10^6/ml and incubated for 30 minutes at room temperature without shaking with unmodified endolysin OBPgpLYS (SEQ ID NO: 7) and modified endolysin PKOBPgpLYS (SEQ ID NO: 61). […] Thereby, the following different EDTA concentrations were used: 0 mM, 0.05 mM, 0.5 mM and 10 mM. […] After incubation cell suspensions were diluted three times (respectively 10^5-10^4-10^3 cells/ml) and 100 μl of each dilution was plated out on LB-medium. […] All samples were replicated in threefold. Averages+/-standard deviations are represented.
# [5] = system: P. putida G1; assay type: cell-based, Pseudomonas putida; details: 0.5 mM EDTA, no endolysin, 30 minutes
# [6] = system: P. aeruginosa Br667; assay type: cell-based, Pseudomonas aeruginosa; details: 0.5 mM EDTA, no endolysin, 30 minutes
# [7] = system: P. putida G1; test: Antibacterial activity of P2gp09 and PKP2gp09 with and without EDTA (30 minutes, colony count); assay type: cell-based, Pseudomonas putida; details: for relative inactivation in logarithmic units (log10N0/Ni): 30 minutes
# [8] = system: P. aeruginosa Br667; test: as above; assay type: cell-based, Pseudomonas aeruginosa; details: for relative inactivation in logarithmic units (log10N0/Ni): 30 minutes
# [9] = system: Salmonella typhimurium LT2; assay type: cell-based; details: 0.5 mM EDTA, no endolysin, 30 minutes
# [10] = system: Escherichia coli WK6; test: Antibacterial activity of P2gp09 and PKP2gp09 with and without EDTA (30 minutes, colony count); assay type: cell-based; details: for relative inactivation in logarithmic units (log10N0/Ni): 30 minutes
# Description: To determine the anti-Gram-negative spectrum of the PK2gp09 endolysin according to SEQ ID NO: 57, a combination of 1.315 μM PK2gp09 endolysin and 0,5 mM EDTA was tested on the clinical P. aeruginosa strains PAO1p and Br667 and on Escherichia coli WK6 (see Table 9). Exponential growing bacterial cells (OD600 nm of 0.6) were 100-fold diluted to a final density of about 10^6/ml of each strain was incubated for 30 minutes at room temperature without shaking with unmodified endolysin P2gp09 (SEQ ID NO: 9) and modified endolysin PKP2gp09 (SEQ ID NO: 57) each in combination without and with 0.5 mM EDTA. […] As a control each strain was also incubated for 30 minutes with 0.5 mM EDTA (in same buffer as outlined above) but no endolysin. After incubation cell suspensions were diluted three times (respectively 10^5-10^4-10^3 cells/ml) and 100 μl of each dilution was plated out on LB-medium.
# [11] = system: Escherichia coli WK6; assay type: cell-based; details: 0.5 mM EDTA, no endolysin, 30 minutes
# [12] = system: Burkholderia pseudomallei; assay type: cell-based; details: for relative inactivation in logarithmic units (log10N0/Ni): 30 minutes
# [13] = 1.315 μM endolysin + 0.5 mM EDTA
molecule,measurement,setting,value
"O=C([O-])CN(CCN(CC(=O)[O-])CC(=O)O)CC(=O)O.[Na+].[Na+] [EDTA, reference compound]",relative inactivation in logarithmic units (log10N0/Ni),"[1]; 0.5 mM EDTA, no endolysin",0.223 +/− 0.038 logarithmic units
same,relative inactivation in logarithmic units (log10N0/Ni),"[2]; 0.5 mM EDTA, no endolysin",0.104 +/− 0.049 logarithmic units
same,relative inactivation in logarithmic units (log10N0/Ni),"[3]; 0.5 mM EDTA, no endolysin",0.393 +/− 0.035 logarithmic units
same,relative inactivation in logarithmic units (log10N0/Ni),"[4]; 0.05 mM EDTA-Na2, 30 minutes",0.028 +/− 0.008 log units
same,relative inactivation in logarithmic units (log10N0/Ni),"[4]; 0.5 mM EDTA-Na2, 30 minutes",0.130 +/− 0.023 log units
same,relative inactivation in logarithmic units (log10N0/Ni),"[4]; 10 mM EDTA-Na2, 30 minutes",1.827 +/− 0.052 log units
same,relative inactivation in logarithmic units (log10N0/Ni),[5],0.412 +/− 0.055 logarithmic units
same,relative inactivation in logarithmic units (log10N0/Ni),[6],0.031 +/− 0.023 logarithmic units
same,relative inactivation in logarithmic units (log10N0/Ni),"[7]; 0.5 mM EDTA, no endolysin",0.072 logarithmic units
same,relative inactivation in logarithmic units (log10N0/Ni),"[8]; 0.5 mM EDTA, no endolysin",0.003 logarithmic units
same,relative inactivation in logarithmic units (log10N0/Ni),[9],0.054 +/− 0.048 logarithmic units
same,relative inactivation in logarithmic units (log10N0/Ni),"[10]; 0.5 mM EDTA, no endolysin",0.153 logarithmic units
same,relative inactivation in logarithmic units (log10N0/Ni),[11],0.592 +/− 0.113 logarithmic units
"PSP3gp10: SEQ ID NO: 8: unmodified globular endolysin with 165 amino acid residues originating from Salmonella typhimurium phage PSP3 (protein, PSP3gp10) MPVINTHQNIAAFLDMLAYSEGTANHPLTKNRGYDVIVTGFDGSPEIFTDYSDHPFAHGRPPKVFNRRGEKSTASGRYQQLYIFWPHYKKQLALPDFSPLSQDKLAIQLIRERGAIDDIRAGRIERAVSRCRNIWASLPGAGYGQREHSLEKLVTVWRTAGGVMA",relative inactivation in logarithmic units (log10N0/Ni),[1]; [13],0.571 +/− 0.035 logarithmic units
same,relative inactivation in logarithmic units (log10N0/Ni),"[1]; 1.315 μM endolysin, no EDTA",0.375 +/− 0.056 logarithmic units
same,relative inactivation in logarithmic units (log10N0/Ni),[2]; [13],0.690 +/− 0.036 logarithmic units
same,relative inactivation in logarithmic units (log10N0/Ni),"[2]; 1.315 μM endolysin, no EDTA",0.283 +/− 0.038 logarithmic units
same,relative inactivation in logarithmic units (log10N0/Ni),[3]; [13],0.387 +/− 0.014 logarithmic units
same,relative inactivation in logarithmic units (log10N0/Ni),"[3]; 1.315 μM endolysin, no EDTA",0.190 +/− 0.029 logarithmic units
"P2gp09: SEQ ID NO: 9: unmodified globular endolysin of 165 amino acid residues originating from Escherichia coli phage P2 (protein, P2gp09) MPVINTHQNIAAFLDMLAVSEGTANHPLTKNRGYDVIVTGLDGKPEIFTDYSDHPFAHGRPAKVFNRRGEKSTASGRYQQLYLFWPHYRKQLALPDFSPLSQDRLAIQLIRERGALDDIRAGRIERAISRCRNIWASLPGAGYGQREHSLEKLVTVWRTAGGVPA",relative inactivation in logarithmic units (log10N0/Ni),[7]; [13],3.919 logarithmic units
same,relative inactivation in logarithmic units (log10N0/Ni),"[7]; 1.315 μM endolysin, no EDTA",0.419 logarithmic units
same,relative inactivation in logarithmic units (log10N0/Ni),[12]; [13],3.8909 logarithmic units
same,relative inactivation in logarithmic units (log10N0/Ni),"[12]; 1.315 μM endolysin, no EDTA",0.769 logarithmic units
same,relative inactivation in logarithmic units (log10N0/Ni),[8]; [13],0.582 logarithmic units
same,relative inactivation in logarithmic units (log10N0/Ni),"[8]; 1.315 μM endolysin, no EDTA",0.246 logarithmic units
same,relative inactivation in logarithmic units (log10N0/Ni),[10]; [13],0.784 logarithmic units
same,relative inactivation in logarithmic units (log10N0/Ni),"[10]; 1.315 μM endolysin, no EDTA",0.751 logarithmic units
"PKPSP3gp10: SEQ ID NO: 53: PSP3gp10 (SEQ ID NO: 8) with N-terminal peptide stretch KRKKRKKRK (SEQ ID NO: 11) (protein, PKPSP3gp10) MGSKRKKRKKRKPVINTHQNIAAFLDMLAYSEGTANHPLTKNRGYDVIVTGFDGSPEIFTDYSDHPFAHGRPPKVFNRRGEKSTASGRYQQLYIFWPHYKKQLALPDFSPLSQDKLAIQLIRERGAIDDIRAGRIERAVSRCRNIWASLPGAGYGQREHSLEKLVTVWRTAGGVMA",relative inactivation in logarithmic units (log10N0/Ni),[1]; [13],0.891 +/− 0.118 logarithmic units
same,relative inactivation in logarithmic units (log10N0/Ni),"[1]; 1.315 μM endolysin, no EDTA",0.353 +/− 0.086 logarithmic units
same,relative inactivation in logarithmic units (log10N0/Ni),[2]; [13],0.850 +/− 0.032 logarithmic units
same,relative inactivation in logarithmic units (log10N0/Ni),"[2]; 1.315 μM endolysin, no EDTA",0.327 +/− 0.057 logarithmic units
same,relative inactivation in logarithmic units (log10N0/Ni),[3]; [13],0.584 +/− 0.024 logarithmic units
same,relative inactivation in logarithmic units (log10N0/Ni),"[3]; 1.315 μM endolysin, no EDTA",0.205 +/− 0.088 logarithmic units
"PKP2gp09: SEQ ID NO: 57: P2gp09 (SEQ ID NO: 9) with N-terminal peptide stretch KRKKRKKRK (SEQ ID NO: 11) (protein, PKP2gp09) MGSKRKKRKKRKPVINTHQNIAAFLDMLAVSEGTANHPLTKNRGYDVIVTGLDGKPEIFTDYSDHPFAHGRPAKVFNRRGEKSTASGRYQQLYLFWPHYRKQLALPDFSPLSQDRLAIQLIRERGALDDIRAGRIERAISRCRNIWASLPGAGYGQREHSLEKLVTVWRTAGGVPA","Δ, difference of activity between P2gp09 and PKP2gp09 samples",[7]; 1.315 μM + 0.5 mM EDTA,>0.467 logarithmic units
same,relative inactivation in logarithmic units (log10N0/Ni),[7]; [13],">4,386 logarithmic units"
same,relative inactivation in logarithmic units (log10N0/Ni),"[7]; 1.315 μM endolysin, no EDTA",1.014 +/− 0.139 logarithmic units
same,"Δ, difference of activity between P2gp09 and PKP2gp09 samples","[7]; 1.315 μM, no EDTA",0.595 logarithmic units
same,"Δ, difference of activity between P2gp09 and PKP2gp09 samples",[12]; 1.315 μM + 0.5 mM EDTA,0.365 logarithmic units
same,relative inactivation in logarithmic units (log10N0/Ni),[12]; [13],4.255 +/− 0.001 logarithmic units
same,relative inactivation in logarithmic units (log10N0/Ni),"[12]; 1.315 μM endolysin, no EDTA",1.163 +/− 0.073 logarithmic units
same,"Δ, difference of activity between P2gp09 and PKP2gp09 samples","[12]; 1.315 μM, no EDTA",0.394 logarithmic units
same,"Δ, difference of activity between P2gp09 and PKP2gp09 samples",[8]; 1.315 μM + 0.5 mM EDTA,0.370 logarithmic units
same,relative inactivation in logarithmic units (log10N0/Ni),[8]; [13],0.952 +/− 0.213 logarithmic units
same,relative inactivation in logarithmic units (log10N0/Ni),"[8]; 1.315 μM endolysin, no EDTA",0.300 +/− 0.062 logarithmic units
same,"Δ, difference of activity between P2gp09 and PKP2gp09 samples","[8]; 1.315 μM, no EDTA",0.054 logarithmic units
same,"Δ, difference of activity between P2gp09 and PKP2gp09 samples",[10]; 1.315 μM + 0.5 mM EDTA,0.749 logarithmic units
same,relative inactivation in logarithmic units (log10N0/Ni),[10]; [13],1.545 +/− 0.102 logarithmic units
same,relative inactivation in logarithmic units (log10N0/Ni),"[10]; 1.315 μM endolysin, no EDTA",1.104 +/− 0.039 logarithmic units
same,"Δ, difference of activity between P2gp09 and PKP2gp09 samples","[10]; 1.315 μM, no EDTA",0.353 logarithmic units
